Measurements taken from US20140356358A1 (Amgen, published 2014).

Legend:
[1] = target: T1, human neonatal Fc receptor (hFcRn) (human, UniProt P55899 24-290; P61769 21-119); test: phage ELISA pH 6
T1 construct: Biotinylated in the ELISA, Octet and yeast assays; also called human FcRn; huFcRn
Description: (§1) Approximately 100 μL of biotinylated human FcRn at 2 μg/mL was added to the wells of MAXISORP™ plates coated with 10 μg/mL streptavidin. After washing with PBS plus 0.05% Tween 20 (PBST) five times, phage from the overnight cultures in MES buffer at pH 6.0 or pH 7.4 were added to the plates and incubated at room temperature for 1 hr. A horseradish peroxidase (HRP)-conjugated anti-M13 antibody was used to detect the binding phage, and the plates were scored by a microtiter plate reader using a wavelength in the visible range.
(§2) Binding was assessed by a quantitative enzyme-linked immunoadsorbent assay (ELISA). The ELISA scores reflect binding affinity, with higher scores meaning higher affinity. Typically, scores higher than about 3˜5 indicate binding above background. For library L5, the insertions are between the N169 and G170 according to the numbering in FIG. 2. For libraries 6A and 6B, the insertions are between L143 and T144 according to the numbering in FIG. 2.

[2] = target: T1, human neonatal Fc receptor (hFcRn); test: phage ELISA pH 7.4
Description: as §1, §2
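Note: higher score means stronger binding and above about 3 to 5 exceeds background.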

ELISA score [1] | ELISA score [2] | Binder
54.9 | 0.6 | L5 isolate with insertion SEQ ID NO: 439 (other) EPKSCDKTHTCPPCPAPELLGGPSVFLFPPKPKDTLMISRTPEVTCVVVDVSHEDPEVKFNWYVDGVEVHNAKTKPREEQYNSTYRVVSVLTVLHQDWLNGKEYKCKVSNKALPAPIEKTISKAKGQPREPQVYTLPPSRDELTKNQVSLTCLVKGFYPSDIAVEWESNGGCHHKQDQCGGGQPENNYKTTPPVLDSDGSFFLYSKLTVDKSRWQQGNVFSCSVMHEALHNHYTQKSLSLSPGK
53.2 | 0.4 | L5 isolate with insertion SEQ ID NO: 445 (other) EPKSCDKTHTCPPCPAPELLGGPSVFLFPPKPKDTLMISRTPEVTCVVVDVSHEDPEVKFNWYVDGVEVHNAKTKPREEQYNSTYRVVSVLTVLHQDWLNGKEYKCKVSNKALPAPIEKTISKAKGQPREPQVYTLPPSRDELTKNQVSLTCLVKGFYPSDIAVEWESNGGCPLVRADCGGGQPENNYKTTPPVLDSDGSFFLYSKLTVDKSRWQQGNVFSCSVMHEALHNHYTQKSLSLSPGK
46.8 | 3.6 | L5 isolate with insertion SEQ ID NO: 463 (other) EPKSCDKTHTCPPCPAPELLGGPSVFLFPPKPKDTLMISRTPEVTCVVVDVSHEDPEVKFNWYVDGVEVHNAKTKPREEQYNSTYRVVSVLTVLHQDWLNGKEYKCKVSNKALPAPIEKTISKAKGQPREPQVYTLPPSRDELTKNQVSLTCLVKGFYPSDIAVEWESNGGCMHSPHACGGGQPENNYKTTPPVLDSDGSFFLYSKLTVDKSRWQQGNVFSCSVMHEALHNHYTQKSLSLSPGK
52.4 | 1.2 | L5 isolate with insertion SEQ ID NO: 447 (other) EPKSCDKTHTCPPCPAPELLGGPSVFLFPPKPKDTLMISRTPEVTCVVVDVSHEDPEVKFNWYVDGVEVHNAKTKPREEQYNSTYRVVSVLTVLHQDWLNGKEYKCKVSNKALPAPIEKTISKAKGQPREPQVYTLPPSRDELTKNQVSLTCLVKGFYPSDIAVEWESNGGCMFETKWCGGGQPENNYKTTPPVLDSDGSFFLYSKLTVDKSRWQQGNVFSCSVMHEALHNHYTQKSLSLSPGK
47 | 1.4 | L5 isolate with insertion SEQ ID NO: 462 (other) EPKSCDKTHTCPPCPAPELLGGPSVFLFPPKPKDTLMISRTPEVTCVVVDVSHEDPEVKFNWYVDGVEVHNAKTKPREEQYNSTYRVVSVLTVLHQDWLNGKEYKCKVSNKALPAPIEKTISKAKGQPREPQVYTLPPSRDELTKNQVSLTCLVKGFYPSDIAVEWESNGGCDWHRMKCGGGQPENNYKTTPPVLDSDGSFFLYSKLTVDKSRWQQGNVFSCSVMHEALHNHYTQKSLSLSPGK
54.2 | 0.7 | L5 isolate with insertion SEQ ID NO: 443 (other) EPKSCDKTHTCPPCPAPELLGGPSVFLFPPKPKDTLMISRTPEVTCVVVDVSHEDPEVKFNWYVDGVEVHNAKTKPREEQYNSTYRVVSVLTVLHQDWLNGKEYKCKVSNKALPAPIEKTISKAKGQPREPQVYTLPPSRDELTKNQVSLTCLVKGFYPSDIAVEWESNGGCSRVFKYCGGGQPENNYKTTPPVLDSDGSFFLYSKLTVDKSRWQQGNVFSCSVMHEALHNHYTQKSLSLSPGK
48.2 | 1.8 | L5 isolate with insertion SEQ ID NO: 459 (other) EPKSCDKTHTCPPCPAPELLGGPSVFLFPPKPKDTLMISRTPEVTCVVVDVSHEDPEVKFNWYVDGVEVHNAKTKPREEQYNSTYRVVSVLTVLHQDWLNGKEYKCKVSNKALPAPIEKTISKAKGQPREPQVYTLPPSRDELTKNQVSLTCLVKGFYPSDIAVEWESNGGCPGHEFRCGGGQPENNYKTTPPVLDSDGSFFLYSKLTVDKSRWQQGNVFSCSVMHEALHNHYTQKSLSLSPGK
51.3 | 0.2 | L5 isolate with insertion SEQ ID NO: 450 (other) EPKSCDKTHTCPPCPAPELLGGPSVFLFPPKPKDTLMISRTPEVTCVVVDVSHEDPEVKFNWYVDGVEVHNAKTKPREEQYNSTYRVVSVLTVLHQDWLNGKEYKCKVSNKALPAPIEKTISKAKGQPREPQVYTLPPSRDELTKNQVSLTCLVKGFYPSDIAVEWESNGGCQTSMKNCGGGQPENNYKTTPPVLDSDGSFFLYSKLTVDKSRWQQGNVFSCSVMHEALHNHYTQKSLSLSPGK
50.5 | 1 | L5 isolate with insertion SEQ ID NO: 452 (other) EPKSCDKTHTCPPCPAPELLGGPSVFLFPPKPKDTLMISRTPEVTCVVVDVSHEDPEVKFNWYVDGVEVHNAKTKPREEQYNSTYRVVSVLTVLHQDWLNGKEYKCKVSNKALPAPIEKTISKAKGQPREPQVYTLPPSRDELTKNQVSLTCLVKGFYPSDIAVEWESNGGCWMWAEECGGGQPENNYKTTPPVLDSDGSFFLYSKLTVDKSRWQQGNVFSCSVMHEALHNHYTQKSLSLSPGK
53.2 | 0.3 | L5 isolate with insertion SEQ ID NO: 444 (other) EPKSCDKTHTCPPCPAPELLGGPSVFLFPPKPKDTLMISRTPEVTCVVVDVSHEDPEVKFNWYVDGVEVHNAKTKPREEQYNSTYRVVSVLTVLHQDWLNGKEYKCKVSNKALPAPIEKTISKAKGQPREPQVYTLPPSRDELTKNQVSLTCLVKGFYPSDIAVEWESNGGCHAPQWECGGGQPENNYKTTPPVLDSDGSFFLYSKLTVDKSRWQQGNVFSCSVMHEALHNHYTQKSLSLSPGK
47.2 | 0.9 | L5 isolate with insertion SEQ ID NO: 461 (other) EPKSCDKTHTCPPCPAPELLGGPSVFLFPPKPKDTLMISRTPEVTCVVVDVSHEDPEVKFNWYVDGVEVHNAKTKPREEQYNSTYRVVSVLTVLHQDWLNGKEYKCKVSNKALPAPIEKTISKAKGQPREPQVYTLPPSRDELTKNQVSLTCLVKGFYPSDIAVEWESNGGCKWSMTKCGGGQPENNYKTTPPVLDSDGSFFLYSKLTVDKSRWQQGNVFSCSVMHEALHNHYTQKSLSLSPGK
50.3 | 0.4 | L5 isolate with insertion SEQ ID NO: 453 (other) EPKSCDKTHTCPPCPAPELLGGPSVFLFPPKPKDTLMISRTPEVTCVVVDVSHEDPEVKFNWYVDGVEVHNAKTKPREEQYNSTYRVVSVLTVLHQDWLNGKEYKCKVSNKALPAPIEKTISKAKGQPREPQVYTLPPSRDELTKNQVSLTCLVKGFYPSDIAVEWESNGGCVHNDKLCGGGQPENNYKTTPPVLDSDGSFFLYSKLTVDKSRWQQGNVFSCSVMHEALHNHYTQKSLSLSPGK
49.8 | 0.6 | L5 isolate with insertion SEQ ID NO: 456 (other) EPKSCDKTHTCPPCPAPELLGGPSVFLFPPKPKDTLMISRTPEVTCVVVDVSHEDPEVKFNWYVDGVEVHNAKTKPREEQYNSTYRVVSVLTVLHQDWLNGKEYKCKVSNKALPAPIEKTISKAKGQPREPQVYTLPPSRDELTKNQVSLTCLVKGFYPSDIAVEWESNGGCYPQKEICGGGQPENNYKTTPPVLDSDGSFFLYSKLTVDKSRWQQGNVFSCSVMHEALHNHYTQKSLSLSPGK
53.2 | 0.4 | L5 isolate with insertion SEQ ID NO: 446 (other) EPKSCDKTHTCPPCPAPELLGGPSVFLFPPKPKDTLMISRTPEVTCVVVDVSHEDPEVKFNWYVDGVEVHNAKTKPREEQYNSTYRVVSVLTVLHQDWLNGKEYKCKVSNKALPAPIEKTISKAKGQPREPQVYTLPPSRDELTKNQVSLTCLVKGFYPSDIAVEWESNGGCMHNEEFCGGGQPENNYKTTPPVLDSDGSFFLYSKLTVDKSRWQQGNVFSCSVMHEALHNHYTQKSLSLSPGK
54.7 | 0.6 | L5 isolate with insertion SEQ ID NO: 441 (other) EPKSCDKTHTCPPCPAPELLGGPSVFLFPPKPKDTLMISRTPEVTCVVVDVSHEDPEVKFNWYVDGVEVHNAKTKPREEQYNSTYRVVSVLTVLHQDWLNGKEYKCKVSNKALPAPIEKTISKAKGQPREPQVYTLPPSRDELTKNQVSLTCLVKGFYPSDIAVEWESNGGCEATMTWCGGGQPENNYKTTPPVLDSDGSFFLYSKLTVDKSRWQQGNVFSCSVMHEALHNHYTQKSLSLSPGK
51.1 | 0.4 | L5 isolate with insertion SEQ ID NO: 451 (other) EPKSCDKTHTCPPCPAPELLGGPSVFLFPPKPKDTLMISRTPEVTCVVVDVSHEDPEVKFNWYVDGVEVHNAKTKPREEQYNSTYRVVSVLTVLHQDWLNGKEYKCKVSNKALPAPIEKTISKAKGQPREPQVYTLPPSRDELTKNQVSLTCLVKGFYPSDIAVEWESNGGCNLGHMPCGGGQPENNYKTTPPVLDSDGSFFLYSKLTVDKSRWQQGNVFSCSVMHEALHNHYTQKSLSLSPGK
46.2 | 0.9 | L5 isolate with insertion SEQ ID NO: 464 (other) EPKSCDKTHTCPPCPAPELLGGPSVFLFPPKPKDTLMISRTPEVTCVVVDVSHEDPEVKFNWYVDGVEVHNAKTKPREEQYNSTYRVVSVLTVLHQDWLNGKEYKCKVSNKALPAPIEKTISKAKGQPREPQVYTLPPSRDELTKNQVSLTCLVKGFYPSDIAVEWESNGGCMMWKVNCGGGQPENNYKTTPPVLDSDGSFFLYSKLTVDKSRWQQGNVFSCSVMHEALHNHYTQKSLSLSPGK
51.6 | 0.4 | L5 isolate with insertion SEQ ID NO: 449 (other) EPKSCDKTHTCPPCPAPELLGGPSVFLFPPKPKDTLMISRTPEVTCVVVDVSHEDPEVKFNWYVDGVEVHNAKTKPREEQYNSTYRVVSVLTVLHQDWLNGKEYKCKVSNKALPAPIEKTISKAKGQPREPQVYTLPPSRDELTKNQVSLTCLVKGFYPSDIAVEWESNGGCLQNLYVCGGGQPENNYKTTPPVLDSDGSFFLYSKLTVDKSRWQQGNVFSCSVMHEALHNHYTQKSLSLSPGK
